From doi:10.1101/2024.01.16.575974, “Structural insights into peptidoglycan hydrolysis by the FtsEX system in Escherichia coli during cell division” (bioRxiv, 2024) come the findings set out here.

Residue numbers refer to the chain shown, from its start. Numbers in names are those of the source.

The labels stand for the following.
T1: Escherichia coli FtsEX complex (wild type) in peptidiscs (Escherichia coli (str. K-12, MG1655), UniProt P0A9R7 1-222; P0AC30 1-352)
T1 sequence (looked up) 1: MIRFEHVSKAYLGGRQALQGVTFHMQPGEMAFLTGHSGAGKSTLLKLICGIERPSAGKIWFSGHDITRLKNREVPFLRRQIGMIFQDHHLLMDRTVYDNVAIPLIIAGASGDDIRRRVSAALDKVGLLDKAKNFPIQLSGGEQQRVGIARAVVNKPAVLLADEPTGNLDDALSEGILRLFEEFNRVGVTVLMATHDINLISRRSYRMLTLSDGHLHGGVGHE
T1 sequence (looked up) 2: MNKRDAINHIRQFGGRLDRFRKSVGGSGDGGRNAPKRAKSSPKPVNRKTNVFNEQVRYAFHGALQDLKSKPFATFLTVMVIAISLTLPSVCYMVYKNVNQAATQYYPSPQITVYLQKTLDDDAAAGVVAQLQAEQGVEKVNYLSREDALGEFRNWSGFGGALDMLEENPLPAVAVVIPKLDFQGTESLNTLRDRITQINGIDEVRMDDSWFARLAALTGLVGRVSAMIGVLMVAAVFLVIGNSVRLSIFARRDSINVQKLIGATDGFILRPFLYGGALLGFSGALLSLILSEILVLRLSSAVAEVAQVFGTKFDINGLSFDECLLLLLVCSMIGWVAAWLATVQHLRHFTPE

B1: Escherichia coli EnvC (EcoEnvCΔ34) (natural protein, UniProt P37690 35-419, looked up)
chain: DERDQLKSIQADIAAKERAVRQKQQQRASLLAQLKKQEEAISEATRKLRETQNTLNQLNKQIDEMNASIAKLEQQKAAQERSLAAQLDAAFRQGEHTGIQLILSGEESQRGQRLQAYFGYLNQARQETIAQLKQTREEVAMQRAELEEKQSEQQTLLYEQRAQQAKLTQALNERKKTLAGLESSIQQGQQQLSELRANESRLRNSIARAEAAAKARAEREAREAQAVRDRQKEATRKGTTYKPTESEKSLMSRTGGLGAPRGQAFWPVRGPTLHRYGEQLQGELRWKGMVIGASEGTEVKAIADGRVILADWLQGYGLVVVVEHGKGDMSLYGYNQSALVSVGSQVRAGQPIALVGSSGGQGRPSLYFEIRRQGQAVNPQPWLGR
B2: Escherichia coli FtsX, full length (natural protein, Escherichia coli (str. K-12, MG1655), UniProt P0AC30 1-352, looked up)
chain: T1 sequence (looked up) 2
notes: FtsX, Escherichia coli str; K-12 MG1655, full length; residues 1-52 not resolved in the maps; Two copies stand in the FtsEX complex; also called EcoFtsX; TMD
B3: Escherichia coli FtsE E163Q mutant, His-tagged (natural protein, Escherichia coli (str. K-12, MG1655), UniProt P0A9R7 1-222, looked up)
chain: T1 sequence (looked up) 1 with E163Q
notes: FtsE, Escherichia coli str; K-12 MG1655, full length, with E163Q (cannot hydrolyse ATP); Made with the QuikChange kit on pTD68 [PT7::his6-FtsEX]; also called FtsE mutant (E163Q); ATPase mutant; source: E. coli BL21(DE3) pLysS, co-expressed with FtsX, purified (DDM, TALON, peptidiscs, SEC) with ATP; not shown: His6, N-terminal, kept

The target in data set [1] is T1, Escherichia coli FtsEX complex (wild …). The data set is described as follows: cell-based or functional assay.
Data set [2] concerns the molecule itself. The data set is described as follows: cryo-EM structure; WT EcoFtsEX in peptidiscs, 3 mM ATPγS, 2 mM Mg2+, incubated 8 min at 37°C before freezing.
Data set [3] concerns the target B1. The data set is described as follows: cryo-EM structure; FtsE^E163QX in peptidiscs incubated with EnvC, 2 mM ATP-Mg2+, 8 min at 37°C before freezing. The following applies: both partners purified.
Data set [4] concerns the molecule itself. Described as above.

Regarding B1, the “fold increase of Vmax of ATP hydrolysis with EnvC over FtsEX alone” value in data set [1] is around 2.2 fold.
Regarding B2, the binding result in data set [2] and in data set [3] was “binds” throughout.
On to B3, for which the binding result in data set [4] was “binds”.
